Reference: a protein production outcome set (Wang et al. 2014)

Assay: label from the status in PepcDB records
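Note: failed if final PepcDB status was selected cloned or expressed and not failed if soluble or beyond.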

In the case of “MIGYVLNGEHEEIPYGELMALLEIFNYNGSVERLKRYVITEDSPAKDIVKRSGYIDEGHRIIFRYNLEEKSVDLVDKIVNDFINSFKDFVANIDYPDIDESKSYAVRVLKLHKDEFTKSIDSLRIEKEIGGIIKLKTNAKVNLTKPDILVRVVILENTFFISNVLEMRDREYFQKNRPHLRKYFHPGCMLPKLARAMVNLARVKEGDIVLDPFCGTGGFLIEAGLIGAKLIGCDIDWRMASGTLINLEEYNLLDKVIKVKRLDAKYVKEFLNELNIEKVDAIVTDPPYGISTAKKGEIEKILETLPEVIKDNGYFVFAYPKKIELDMELEGLYKVYIHKGLIRHIHVYKKI”, the protein production is reported as “failed”.

For “MTAPKVFVSHASEDKARFVVDFARRLRENGVDAWLDQWEMKPGDSLVDKIFEEGLREARAVVIVLSATSVRKPWVREELNASVVNRISRGTKLIPVVIDDCDVPEALRSTVWQKIDNLDDYGESLQRILSVIFDVTDKPALGAPPARFAGPAPLIAGLSRVDDLVIRVIARRQIDEGAGLVEWDRLKAEPILRDVPQQELLDSLEILKRHDFIRVREVIGALHVVLTDLGFLKFAEAYVDDYQGTVNQIAALLVNENVRQNRELAARVNKPVAFIDFVLNLMESNGYIKVSKYIGGQSHVREVSASLRRALQSA”, the protein production was “failed”.

With “MVLKERHKKICLLPSYSRLAHYPGLLMLTTLIYRSHIRGDEPVKKIEEMVSIANRRNMRSDVTGILLFNGSHFFQLLEGPEEQVQMIYRAICQDPRHYNIVELLCDYAPARRFGKAGMELFDLRLHERDDVLQAVFDKGTSKFQLTYDDRALQFFRTFVLATEQSTYFEIPAEDSWLFIADGSDKELDSCTLSSNINDHFAFHPIVDPLSRRIIAFEAIVQKNEDSPSAIAVGQRKDEEIYTADLKSKALAFAMAHALKLGDKMISINLLPMTLVNKPDAVSFLLDEIKANALVPEQIIVEFTESEVISRFDEFAEAVKSLKAAGISVAIDHFGAGFAGLLLLSRFQPDRIKISQELITNVHKSGPRQAIIQAIMKCCTSLEIQVSAMGVATPEEWMWLESAGIEMFQGDLFSKAKLNGIPSVAWPEKK” the protein production was “failed”.

For “MTHYHFVGIKGSGMSSLAQIMHDLGHEVQGSDIESYVFTEVALRNKGIKILPFDANNITKEMVVIQGNAFPDNHEEIVRAHELKLDIIKYHDFLGHVINQYTSVAVTGAHGKTSTTGLLSHVMNGDKKTSFLIGDGTGMGLPGSDYFAFEACEYRRHFLSYHPDYAIMTNIDFDHPDYFKNIDDVYDAFQHMALNVKKGIIAWGDDEYLRKLDVDIPVYYYGFKETDDIYAKNIQITEKGTQFDVYIKGEFYDQFLSPQYGNHNILNALAVIAISYLEDMNVENIKEALITFGGVKRRFNETKVSNQVIVDDYAHHPREISATIETARKKYPQKDVVAVFQPHTFSRTQAFLNEFAESLSKADQVFLCEIFGSIRENTGDLTIEDLINRIDGSTLIDENSIDVLEKFDNAVILFMGAGDIQKLLKAYFEKLGVKNDF”, the protein production was “failed”.

For “MRPSAEALRDRPRCGIRPSMDYYDLGRHGRPVTTSSPEAQRWFDRGLVWTYAFHHEEAVACFEAAVAADPDCAMAHWGIAHALGPNYNKPWDAFDTEELTRTVDRTHAAVERAHALAGRATPAERALIDALRARYPQASAVEDCSVWNAPYADGMRAVYELAPDDLDVAALYADALMNLTPWQLWDLRTGLPAEGARTLAAKEVLDRALAAEGGRDHPGVVHLYIHLMEMSPTPEAALAVADRLRGLVPDAGHLLHMPSHLEVLCGDYRRVVSDNEAAIAADEKCLARSGAMNFYTLYRAHNHHFKIYGAMFLGRYEVALDAAARLEASVPEALLRVESPPMADWLEAFLAMRVHVLIRFGRWTDILALPLPDDPRLYCVTTAMLHYARGVALSATGRVAEAETERDLFRAAVDRVPGSRTLFNNTCADILAIASAMLDGELEYRRGNHTAAFAALERSVELDDNLPYDEPWGWMQPTRHAYGALLLEQGRTAEAEAVYRADLGLDDTLPRPLQHPNNVWALHGLHECLVRLGRAGEVRIVAQQLRFAAALADVPVEASCFCRLGTAPAAGGDAGCCATGQ”, the protein production was “failed”.

In the case of “MKEKVSVPFMLLGILFNVCLIAANLLETKVIQVGSITVTAGLLVFPISYIINDCIAEVWGFKKARLIIWSGFAMNFFVVALGLIAVALPAAPFWEGEQHFDFVFGMAPRIVVASLLAFLVGSFLNAYVMSKMKVASGGRNFSSRAIWSTMVGETADSLIFFPIAFGGLIAWPELLVMMGTQIVLKSLYEVIILPITIRVVKAVKRIDGSDVYDTDISYNVLKVKDI”, the protein production is reported as “failed”.

For “MSFIEKMIGSLNDKREWKAMEARAKALPKEYHHAYKAIQKYMWTSGGPTDWQDTKRIFGGILDLFEEGAAEGKKVTDLTGEDVAAFCDELMKDTKTWMDKYRTKLNDSIGRD”, the protein production was “not failed”.

With “MVQNLSREQYGFVIWVVGNNSIPEEIRSLTTFLSWENLGTCLLLDPNAHVGSLCCSHRRVLLVEEFLGSYLSWGILDFDLFVQSNALNGGVIDMLRRFGVEVHISQPPTKTKKRSNANRKGFPDIELGKAMHSRALERNPSPMLLISSDSRLHTDVSHITSLAFEIILFHTKKAPKDLKDLATKRVLWFDGVSKLTEVRI” the protein production was “failed”.

With “MKSAELKYLDFEDFTKLIALAKEKINPIYSSSFMIYIAAMTGMRFSELLGLTWDNVDFEKGQIYVKRTWDIYKNNFAPTKNDQSVRFLAIDSSTMQVMINYKEQQEKLLKRLEIEPEHPFVFYNIKNGLITNNSLNKQLRNMCKKLGFKKIITCHGLRHTHASTMLYKGINILYVSKRLGHSSLNVTMSVYSHILKLEHHHHHH” the protein production was “failed”.

For “MELKMKTRALVIGLGSMGKRRVRNLLALGNIDVFGFDVRADRNEEASSKYQITTFDDVQKAFEDVKPEVVVISTPPQLHMTYANMCFDARVPCFIEASVTDIEEIRELGKKALEASLVIAPSCTMRYFPGPKKVKELLEQNVIGSPLSVNYQTGQYLPDWHPWEDIQDFYVSKRESGGAREIVPFELTWLNDLFSHDVKALASAVAKQTDMNADIDDIYHCLLQYDSGVLLNLTVEVISRPLATREMLILGSKGKIKFSADSNSVSYCNLETDGWVESTWEEGTVESQYINPEEPYINEMKDFVTAALAGDQSLFPNNLQDDVKVLEVLEALEEVDQLKGNKA”, the protein production was “failed”.

In the case of “MSNSQWVPVSLNEYLAHLPMSDEQRAELASCTTFAELHERLSAQPVTDPAEAAQASVGRRLTLSADDLEDAEMLGVDASGRLCLKATPPIRRTKVVPEPWRTNILVRGWRRLTGKSNPPKPDHSDLPRDLPKSRWRTVGSIRRYILLILMLGQTIVAGSYMKGILPYQGWSLVSLDEITRQTFVQTALQVLPYALQTSILLLFGILFCWVSAGFWTALMGFLELLTGRDKYRISGASAGNEPIEAGARTALVMPICNEDVPRVFAGLRATFESVAATGNLDRFDFFVLSDTNETDIAVAEQQAWLDVCRETKGFGSIFYRRRRRRVKRKSGNLDDFCRRWGGEYRYMVVLDADSVMSGECLTSLVRLMEATPDAGIIQTAPRASGMDTLYARMQQFATRVYGPLFTAGLHFWQLGESHYWGHNAIIRMKPFIEHCALAPLPGKGAFAGAILSHDFVEAALMRRAGWGVWIAYDLPGSYEELPPNLLDELKRDRRWCHGNLMNFRLFLVKGMHPVHRAVFLTGVMSYLSAPLWFFFLVLSTALLAVNTLMEPTYFLEPRQLYPLWPQWHPERAVALFSTTIVLLFLPKLLSVILIWAKGAKGFGGKFKVTVSMLLEMLFSVLLAPVRMLFHTRFVLAAFLGWAATWNSPQRDDDSTPWLEAVKRHGPQTLLGACWALLVFWLNPSFLWWLAPIVVSLMLSIPVSVISSRTNLGLKARDEKFFLIPEEFEPPQELVSTDQYTHENRWHALKQGFIRAVVDPRQNALACALATSRHRQAQPIEVVRMERVDHALKVGPAKLDNQHRLMLLSDPVALGRLHERVWSEGHEEWLAAWRASIEADPHAPLLPLQPVVKAPEPVLV”, the protein production is reported as “failed”.

With “MRAMSKFSRIGLAGVVGAALHAILANHLAPAVQQRLPIGRVSLTFFLALLSALAAGAVLARLAPRARVAALAVAALAFLLLAAATTWLQQCTPAQLAAIDAATPLGCNLGLYNRARAHLPPDGRPAELAPGVWFDRHGLSYACLPPEAQATHLRVALADYALALVGMSLGALLGARQRRRRDQD” the protein production was “failed”.

For “PGLVDVHTHFMPERVLRKVWDYFDGLGPLTGGLEWPITYRSDEDQRLATIREFGVRAFTAMLYPHKAGMARWLNSWAVDFARRTPDCLHTATLFPEPGVEAYVLEAVEQGARVFKAHVQVGAYDPADELLDPVWGLLAEAGVPVVMHCGSGPAPGKHTGPGPVAQVLARHPRLRLVVAHLGMPEYEDFLDLAERYGEVRLDTTMAFTDFSERLAPFPRGARPRLAGLGDRILLGTDFPNIPYRYVDQLYALERLGLGDDWLRSVCHGNGARLFGL”, the protein production was “failed”.
